From the Human Domainome abundance scans (Beltran et al. 2025)
± gives the uncertainty stated by the source.

B1: Serine/threonine-protein kinase LATS1, residues 98 to 141; numbered along this chain, O95835 (parent)
chain: TSEVNPQMLQDLQAAGFDEDMVIQALQKTNNRSIEAAIEFISKM

Variants of: B1
Experiment: abundance fitness (aPCA) (normalised: wild type 0, dead -1); higher = more abundant; growth selection in yeast, the domain comes from the species named
Details: Homo sapiens

Variant | abundance fitness
N31Q | -0.63 ± 0.089
N31L | -0.75 ± 0.049
N31W | -0.557 ± 0.046
N31A | -0.416 ± 0.035
N31G | -0.155 ± 0.03
G16L | -0.898 ± 0.1
G16H | -0.275 ± 0.38
G16E | -0.617 ± 0.055
G16A | -0.725 ± 0.062
G16M | -0.962 ± 0.099
A25K | -0.684 ± 0.083
A25T | -0.741 ± 0.058
D20C | -0.208 ± 0.041
D20E | 0.007 ± 0.045
D20S | -0.063 ± 0.044
D20N | -0.06 ± 0.087
D20R | -0.142 ± 0.036
D20L | -0.288 ± 0.037
M21E | 0.043 ± 0.044
M21F | -0.291 ± 0.066
M21V | 0.059 ± 0.037
M21G | -0.363 ± 0.036
M21N | -0.148 ± 0.071
M21K | -0.059 ± 0.062

Variant | abundance fitness
M21C | -0.126 ± 0.063
M21R | -0.268 ± 0.039
M44P | -0.148 ± 0.056
S42Y | -0.142 ± 0.061
S42F | -0.229 ± 0.11
P6N | 0.249 ± 0.096
P6Q | 0.081 ± 0.053
P6W | -0.201 ± 0.043
P6H | -0.001 ± 0.083
F40D | -0.055 ± 0.058
F40K | -0.177 ± 0.048
F40M | -0.042 ± 0.038
F40A | -0.018 ± 0.035
F40R | -0.248 ± 0.033
L12Y | -1.06 ± 0.32
L12W | -0.951 ± 0.057
L12F | -0.737 ± 0.12
L12H | -0.573 ± 0.12
L12I | -0.364 ± 0.077
Q10F | -0.247 ± 0.059
Q10A | 0.015 ± 0.037
Q10S | -0.07 ± 0.034
Q10D | -0.12 ± 0.054
Q10W | -0.295 ± 0.042

Variant | abundance fitness
Q10V | -0.253 ± 0.038
Q10T | -0.195 ± 0.04
K43N | -0.038 ± 0.18
A36P | -0.36 ± 0.04
A36S | -0.073 ± 0.05
A36C | -0.169 ± 0.041
A36M | -0.316 ± 0.05
I23N | -0.104 ± 0.064
I23W | -0.373 ± 0.045
S2W | -0.174 ± 0.044
S2E | -0.014 ± 0.06
S2F | -0.108 ± 0.085
S2G | 0.029 ± 0.034
A37W | -1.17 ± 0.09
A37K | -1.03 ± 0.29
A37N | -0.446 ± 0.098
A37Q | -0.428 ± 0.051
A37V | -0.453 ± 0.037
R32W | -0.484 ± 0.043
R32A | 0.089 ± 0.039
L26D | -0.354 ± 0.059
L26Q | -0.412 ± 0.05
L26I | -0.292 ± 0.074
L26N | -0.377 ± 0.06

Variant | abundance fitness
L26V | -0.571 ± 0.044
V22C | 0.11 ± 0.073
V22E | -0.355 ± 0.052
E3H | -0.148 ± 0.071
E3V | -0.802 ± 0.054
E3T | -0.126 ± 0.054
E3F | -0.18 ± 0.095
E3W | -0.116 ± 0.05
F17M | -0.336 ± 0.061
F17V | -0.501 ± 0.04
F17Q | -0.366 ± 0.049
V4F | -0.357 ± 0.066
V4T | -0.218 ± 0.053
V4E | -0.402 ± 0.045
V4N | -0.204 ± 0.067
D18G | -0.169 ± 0.035
D18K | -0.117 ± 0.045
Q13Y | -0.53 ± 0.054
Q13R | 0.059 ± 0.033
Q13W | -0.851 ± 0.072
Q13I | 0.071 ± 0.064
Q13E | -0.18 ± 0.04
S33G | -0.136 ± 0.035
S33A | -0.797 ± 0.055

Variant | abundance fitness
S33Q | -1.02 ± 0.11
M8H | -0.244 ± 0.084
M8A | -0.525 ± 0.051
M8F | -0.162 ± 0.057
M8V | -0.508 ± 0.036
N5G | -0.653 ± 0.04
Q27C | -0.273 ± 0.042
Q27K | 0.068 ± 0.044
A15C | -0.287 ± 0.06
A15W | -0.442 ± 0.047
A15V | -0.429 ± 0.039
A15L | -0.003 ± 0.038
A15I | -0.238 ± 0.054
A15S | -0.309 ± 0.041
A15P | -0.954 ± 0.1
E19F | -0.31 ± 0.054
E19W | -0.75 ± 0.065
E35Q | -0.141 ± 0.041
E35C | -0.485 ± 0.066
E35T | -0.158 ± 0.053
E35K | -0.169 ± 0.047
I38Q | -0.021 ± 0.048
I38A | -0.048 ± 0.037
I38K | 0.055 ± 0.048

Variant | abundance fitness
I38C | -0.119 ± 0.043
I38F | -0.42 ± 0.072
T1M | -0.11 ± 0.067
T1S | 0.021 ± 0.04
T1W | -0.197 ± 0.054
E39T | -0.237 ± 0.047
E39D | -0.113 ± 0.089
E39P | -0.483 ± 0.16
N30P | -0.529 ± 0.061
N30D | -0.093 ± 0.055
N30A | -0.193 ± 0.033
N30F | -1.05 ± 0.15
N30K | -0.021 ± 0.042
N30W | -1.07 ± 0.086
Q7L | -0.296 ± 0.04
Q7M | -0.178 ± 0.074
Q7T | -0.079 ± 0.053
A14V | -0.308 ± 0.036
A14P | -0.898 ± 0.15
A14S | -0.047 ± 0.045
A14K | 0.007 ± 0.059
K28M | -0.037 ± 0.046
K28S | -0.041 ± 0.035
K28G | -0.08 ± 0.031

Variant | abundance fitness
K28Q | -0.024 ± 0.057
I34F | -0.192 ± 0.074
I34L | -0.005 ± 0.037
I34W | -0.505 ± 0.06
I41D | -0.11 ± 0.045
I41H | -0.272 ± 0.07
I41R | -0.361 ± 0.031
I41W | -0.648 ± 0.057
I41V | -0.411 ± 0.035
I41C | -0.225 ± 0.056
D11Y | -0.086 ± 0.055
D11F | -0.045 ± 0.051
D11G | -0.479 ± 0.04
Q24A | -0.066 ± 0.034
Q24L | 0.013 ± 0.036
Q24M | -0.028 ± 0.037
Q24Y | -0.222 ± 0.13
Q24D | -0.005 ± 0.05
L9H | -0.35 ± 0.17
L9G | -0.481 ± 0.082
T29E | -0.529 ± 0.046
T29F | -1.09 ± 0.16
T29Q | -0.563 ± 0.071
